# Results: patent US20080153161A1, “Genetically Encoded Photosensitizers and Methods for Using Same” (priority 2005, published 2008)
# “Also recorded” adds a separate entry of the source. Where a SMILES comes first, the peptide text is derived from it. The star is where a group is joined. Cbz = O=C(OCc1ccccc1)*; CH2F = FC*
# T1: pleckstrin homology (PH) domain of phospholipase C delta-1 (PLC delta-1) (Homo sapiens, UniProt P51178)
# T1 sequence (P51178 1-224): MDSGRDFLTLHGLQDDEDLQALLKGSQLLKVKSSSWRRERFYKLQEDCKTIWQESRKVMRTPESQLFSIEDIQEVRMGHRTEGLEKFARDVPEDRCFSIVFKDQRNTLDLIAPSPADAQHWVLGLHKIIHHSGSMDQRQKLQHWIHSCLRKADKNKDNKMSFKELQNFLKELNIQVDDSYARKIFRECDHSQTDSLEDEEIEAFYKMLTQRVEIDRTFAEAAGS
# Key:
# B16 melanoma cells [1] = experiment: Phototoxicity of TMRM compared with mitochondrial KillerRed in B16 melanoma cells; format: cell-based; conditions: 100 nM, 3.3 W/cm2 green light
# Description: The phototoxicity of mitochondrial KillerRed was compared with the phototoxicity of tetramethylrhodamine (TMRM)—a red fluorescent dye capable of producing ROS which accumulates in mitochondria of living cells. B16 melanoma cells were preincubated with 100 nM TMRM for 20 min at 37° C. and irradiated by 3.3 W/cm2 green light (40× objective, 535-575 nm) for time periods of 10 sec, 1 min, 5 min, and longer. […] Irradiation for 1 min led to cell death within 30-40 min. The effect was similar to that obtained by 15-min irradiation of the KillerRed-expressing cells under the same conditions.
# B16 melanoma cells [2] = experiment: Light-induced killing of B16 melanoma cells expressing mitochondrially targeted KillerRed; format: cell-based; conditions: pre-incubated with 10 μM inhibitor, 1.5 hour post illumination
# Excerpt: Mitochondrial localization of a photosensitizer is known to be effective in photodynamic therapy, leading preferentially to apoptotic cell death. To provide for a more pronounced phototoxic effect, KillerRed was targeted to mitochondria by cloning it in frame with a double N-terminal mitochondrial localization signal and the resulting construct was transiently transfected into B16 melanoma cells. Exposure of mitochondrially targeted KillerRed expressing B16 melanoma cells to green light for 15 minutes using lower irradiation intensity (40× objective, 535-575 nm excitation filter, 3.3 W/cm2) led to nearly 100% cell death within 45 min after irradiation (FIG. 8B). If pre-incubated with 10 μM pancaspase inhibitor zVAD-fmk, the cells survived identical irradiation and preserved their native shape within 1.5 hour post illumination. This indicates the apoptotic way of the mitochondrially targeted KillerRed-mediated cell death.
# beta-gal [3] = experiment: Inhibitory analysis with specific ROS quenchers in the in vitro beta-gal CALI system; format: biochemical, E. coli; conditions: superoxide dismutase 500 u/ml with catalase 500 u/ml; mannitol 67 mM; sodium azide 20 mM
# Description: White and hatched columns show β-gal activity for the intact and irradiated samples, respectively.
# The mechanism of the KillerRed-mediated effect was tested using inhibitory analysis. A specific ROS quenchers were added to the in vitro beta-gal CALI system described above (FIG. 6).
# [4] = system: E. coli (XL1-Blue strain); experiment: Screening of fluorescent and chromo-proteins for phototoxic effect in E. coli (CFU after white light); format: cell-based; conditions: for phototoxic effect: E. coli expressing the protein, white light 1 hour, CFU irradiated vs non-irradiated
# Excerpt: Looking for a GFP-like protein, which could be used as an efficient photosensitizer, we screened different proteins for a phototoxic effect in E. coli including: • (1) Anemonia majano fluorescent protein AmCyan (also noted to as FP486, GenBank ID AF168421; Clontech); • (2) Zoanthus sp. fluorescent protein ZsGreen FP506 (also noted to as FP506, GenBank ID AF168422; Clontech); • (3) red fluorescent protein DsRed2 (Clontech); • (4) Anemonia sulcata GFP-like chromoprotein asulCP FP595 (also noted to as FP595, GenBank ID AF246709); • (5) asulCPW94F protein, a mutant of chromoprotein FP595 comprising W94F amino acid substitution; • (6) commercially available red fluorescent protein AsRed2 (Clontech); • (7) Dendronephthya sp. green fluorescent protein dendGFP (GenBank ID AF420591); • (8) Goniopora tenuidens GFP-like chromoprotein, gtenCP (GenBank ID AF383156); • (9) aceGFP (GenBank ID AY233272); • (10) circularly permutated aceGFP (GenBank ID AY233272) variant, cpT1 having nucleotide and amino acid sequences shown in SEQ ID NOS: 5, 6.; • (11) monomeric mutant of dendGFP protein, dendQ4mono, having nucleotide and amino acid sequences shown in SEQ ID NOS: 7, 8.; • (12) EGFP, the most popular Aequorea GFP mutant variant (GenBank ID U55763); • (13) chromoprotein am2CP(PCT/RU03/00474; SEQ ID NOS: 9, 10); • (14) red fluorescent protein KillerRed (JR18IC+)(SEQ ID NOS: 3, 4), developed on the basis of chromoprotein am2CP by random mutagenesis; and • (15) non-colored mutant of FP506 protein, ZsGreenY66A, containing mutation Y66A which eliminates the chromophore, was used as a negative control.
# Synthetic genes encoding proteins listed above were cloned into the pQE30 vector and transformed into E. coli (XL1-Blue strain). For each protein tested, protein expressing cells were taken from one E. coli colony, diluted into 1 ml of PBS buffer and divided into two portions. One of them was irradiated with white light (light source Fiber-Light from Dolan-Jenner Industries, Inc) for 1 hour. Then both samples aliquots were sowed to the Petri dishes at different dilutions. The number of growing colonies corresponded to the number of bacteria cells surviving after irradiation (i.e. colony forming units, CFU). The CFU number for the irradiated E. coli portion was compared to non-irradiated one, thus allowing an estimate of the relative phototoxic effect for every of the proteins tested.
# Comparing to the wild type chromoprotein anm2CP, KillerRed contains amino acid changes T145N and C161A (corresponding to positions 148 and 165 in Aequorea victoria GFP), which are spatially close to the chromophore and affect fluorescent properties, and a number of folding mutations. […]
# [5] = target: T1, pleckstrin homology (PH) domain of phospholipase C delta-1 (PLC delta-1); experiment: KillerRed-mediated CALI of PH domain in mammalian cells (membrane to cytoplasm translocation); conditions: KillerRed expressed separately from the PH domain, in membrane or cytosol
# Description: KillerRed-mediated CALI was further tested in mammalian cells (FIG. 7). The pleckstrin homology (PH) domain of phospholipase C delta-1 (PLC delta-1) was used as a model protein. The PH domain locates to the inner leaf of plasma membrane due to its high affinity for membrane phospholipids. It has been shown that in case of direct protein inactivation by dye-generated ROS, the PH domain will lose its membrane affinity and become evenly distributed throughout the cell volume.
# A coding sequence for the first 224 amino acids of PLC delta-1 comprising the N-terminal PH-domain was amplified from Fetus Brain cDNA (Clontech) with specific PCR primers. […] Primers used comprised certain restriction sites that were used for following cloning of PCR products into pEGFP-Tub plasmid (Clontech) in frame with EGFP. As a result, a PH domain fusion with EGFP and triple fusions EGFP-PH-KillerRed and EGFP-PH-DsRed-Express operatively linked with CMV promoter were obtained.
# The 293T cell-derived Phoenix Eco cell line was transiently transfected with these constructs. Intracellular localization of PLC delta-1 was evaluated using EGFP signal before and after CALI of the PH domain using confocal and fluorescence microscopy. Fluorescence was monitored using a Leica Confocal Microscope DM IRE2 TCS SP2. […]
# [6] = system: E. coli (XL1-Blue strain); experiment: Time course of survival of E. coli expressing fluorescent proteins under white light; format: cell-based
# Description: To compare the KillerRed phototoxic effect with the effect of DsRed2 fluorescent protein, pQE30 vectors encoding KillerRed, DsRed2 or ZsGreenY66A non-colored protein were prepared as described in Example 1. E. coli (XL1-Blue strain) were transformed with said pQE30 vectors. The cells expressing ZsGreenY66A was used as a negative control. We estimated the percent of cells surviving after bacteria irradiation for 5, 10, 20, 40 and 60 minutes. […] The graph of FIG. 2 indicates the number of colonies, which grew without irradiation and after irradiation for the corresponding period of time.
# E. coli = experiment: Action spectrum of KillerRed phototoxic effect (green vs blue light); format: cell-based
# Excerpt: FIG. 3 illustrates excitation (dotted line) and emission (solid line) spectra for KillerRed protein. Hatched and white rectangles show relative phototoxic effect from irradiation with blue (460-490 nm) and green (540-580 nm) light, respectively. Numbers above the rectangles represent the decrease in the number of viable cells after 10-min irradiation (folds).
# Further we roughly checked the action spectrum for KillerRed phototoxic effect (FIG. 3).
# 293T human kidney cells = experiment: Light-induced killing of 293T cells expressing KillerRed in cytoplasm; format: cell-based
# Excerpt: For expression in eukaryotic cells, the PCR-amplified Agel-NotI fragments from pQE30 vectors encoding KillerRed and DsRed2 (obtained as described in the Example 1) were PCR amplified and inserted in lieu of the EGFP-coding region in the pEGFP-N1 vector (Clontech).
# 293T human kidney cells were transiently cotransfected with these vectors and the AcGFP1-C1 vector (Clontech) using Lipofectamine reagent (Invitrogen). The cells of interest were characterized with high expression levels of both green fluorescent protein AcGFP1 and KillerRed (or DsRed2 in a control experiment). Cells were irradiated with intense green light for 10 min (100× objective, 535-575 nm excitation filter, 5.8 W/cm2). Mortality of irradiated KillerRed expressing cells reached 40-60%, depending on protein concentration (FIG. 8A).
# At the same time, neighboring cells with a lower KillerRed expression level survived irradiation, presumably due to the lower concentration of the phototoxic agent. […] A Leica confocal inverted microscope TCS SP2 equipped with 125 mW Ar and 1 mW HeNe lasers was used for cell imaging. A LaserCheck (Coherent) power meter was used to measure total power of the excitation light after the microscope objective.
# beta-gal [7] = target: beta-gal (Escherichia coli, UniProt P00722, DEL12-42); conditions: beta-gal mixed with KillerRed (unfused), E. coli extracts
# beta-gal (Escherichia coli, UniProt P00722, DEL12-42), sequence (P00722 whole entry, stated change not applied, the tested form may be a part): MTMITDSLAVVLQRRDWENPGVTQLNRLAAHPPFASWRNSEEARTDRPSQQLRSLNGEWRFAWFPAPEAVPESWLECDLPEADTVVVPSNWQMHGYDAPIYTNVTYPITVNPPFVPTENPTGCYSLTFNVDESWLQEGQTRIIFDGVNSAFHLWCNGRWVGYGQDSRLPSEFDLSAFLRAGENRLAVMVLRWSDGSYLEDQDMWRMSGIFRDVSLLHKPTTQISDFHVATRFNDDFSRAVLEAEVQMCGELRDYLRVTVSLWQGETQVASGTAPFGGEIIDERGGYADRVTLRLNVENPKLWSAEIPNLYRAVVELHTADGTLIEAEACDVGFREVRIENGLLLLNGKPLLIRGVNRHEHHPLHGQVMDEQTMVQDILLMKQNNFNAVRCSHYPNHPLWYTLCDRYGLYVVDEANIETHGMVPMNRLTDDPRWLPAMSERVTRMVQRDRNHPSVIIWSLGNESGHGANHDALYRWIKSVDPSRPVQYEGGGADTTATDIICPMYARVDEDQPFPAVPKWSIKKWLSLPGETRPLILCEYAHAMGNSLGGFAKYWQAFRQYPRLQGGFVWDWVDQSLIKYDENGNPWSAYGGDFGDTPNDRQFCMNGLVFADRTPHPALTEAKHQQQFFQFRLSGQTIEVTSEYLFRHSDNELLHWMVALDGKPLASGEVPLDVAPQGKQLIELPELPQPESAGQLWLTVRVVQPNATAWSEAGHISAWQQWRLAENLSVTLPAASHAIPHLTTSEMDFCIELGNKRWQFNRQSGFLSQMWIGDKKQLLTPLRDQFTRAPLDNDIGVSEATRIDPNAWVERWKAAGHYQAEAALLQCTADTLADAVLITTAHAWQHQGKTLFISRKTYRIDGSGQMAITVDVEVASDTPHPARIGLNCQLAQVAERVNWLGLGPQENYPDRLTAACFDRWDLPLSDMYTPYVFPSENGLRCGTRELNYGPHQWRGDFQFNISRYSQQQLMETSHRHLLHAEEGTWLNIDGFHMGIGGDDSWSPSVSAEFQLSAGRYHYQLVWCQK
# beta-gal (Escherichia coli, UniProt P00722, DEL12-42), sequence (P00722 with tags, fused parts or gaps DEL12-42): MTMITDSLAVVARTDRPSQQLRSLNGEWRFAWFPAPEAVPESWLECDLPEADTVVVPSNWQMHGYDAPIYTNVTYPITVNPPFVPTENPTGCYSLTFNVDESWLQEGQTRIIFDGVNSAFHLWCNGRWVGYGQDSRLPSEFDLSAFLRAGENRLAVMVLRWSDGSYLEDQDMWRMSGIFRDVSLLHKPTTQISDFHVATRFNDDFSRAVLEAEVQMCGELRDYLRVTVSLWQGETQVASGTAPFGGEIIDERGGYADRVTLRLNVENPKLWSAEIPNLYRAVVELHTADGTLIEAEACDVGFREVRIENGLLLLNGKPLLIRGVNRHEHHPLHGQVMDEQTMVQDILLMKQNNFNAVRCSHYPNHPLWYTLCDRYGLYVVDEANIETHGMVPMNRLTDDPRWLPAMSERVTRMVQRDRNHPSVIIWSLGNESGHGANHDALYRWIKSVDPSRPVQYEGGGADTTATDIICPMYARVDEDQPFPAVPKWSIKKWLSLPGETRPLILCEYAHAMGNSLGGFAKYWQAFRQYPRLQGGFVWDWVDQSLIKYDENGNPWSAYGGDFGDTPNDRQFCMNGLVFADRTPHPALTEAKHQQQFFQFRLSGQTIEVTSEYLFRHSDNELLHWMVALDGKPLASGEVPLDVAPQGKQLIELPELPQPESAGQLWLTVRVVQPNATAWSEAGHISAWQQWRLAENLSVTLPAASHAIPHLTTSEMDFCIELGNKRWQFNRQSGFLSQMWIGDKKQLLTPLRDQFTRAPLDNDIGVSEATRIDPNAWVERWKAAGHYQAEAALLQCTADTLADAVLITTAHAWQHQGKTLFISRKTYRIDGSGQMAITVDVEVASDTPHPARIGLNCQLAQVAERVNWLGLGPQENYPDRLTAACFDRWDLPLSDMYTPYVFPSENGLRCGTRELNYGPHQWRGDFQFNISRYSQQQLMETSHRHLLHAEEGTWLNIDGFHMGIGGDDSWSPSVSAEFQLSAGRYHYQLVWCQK
# Description: O-nitrophenyl (ONP) absorption after 15 min o-nitrophenyl-D galactoside (ONPG) incubation is proportional to β-gal enzymatic activity.
# Aliquots were either incubated under white light (1 W/cm2, light source Fiber-Light from Dolan-Jenner Industries, Inc) or kept in the dark. The entire volume of the tube was illuminated. Beta-gal activity was assayed in light-illuminated and “dark” aliquots calorimetrically.
molecule,measurement,setting,value
"CN(C)c1ccc2c(-c3ccccc3C(=O)[O-])c3ccc(N(C)C)cc3[o+]c2c1 [TMRM, tetramethylrhodamine]",cell death,"B16 melanoma cells [1]; irradiation for 10 sec, within 1.5 h interval",didn't lead to TMRM-loaded cells' death
same,time to cell death,B16 melanoma cells [1]; irradiation for 1 min,30 to 40 min
same,cell death,B16 melanoma cells [1]; irradiation for 5 minutes or longer,immediate cell death
COC(=O)C[C@H](NC(=O)[C@H](C)NC(=O)[C@@H](NC(=O)OCc1ccccc1)C(C)C)C(=O)CF [zVAD-fmk] (Cbz-Val-Ala-Asp(OMe)-CH2F),cell survival after identical irradiation,B16 melanoma cells [2],survived
superoxide dismutase,effect of quencher on CALI of beta-gal,beta-gal [3],impeded CALI slightly
"anm2CP: wild type Anthomedusae chromoprotein (SEQ ID NOs: 9 and 10) (protein, hydromedusa 2 from sub-order Anthomedusae) MEGGPALFQSDMTFKIFIDGVVNDQKFTIIADGSSKFPHGDFNVHAVCETGKLPMSWKPICHLIQYGEPFFAKYPNGISHFAQECFPEGLTIDRTVRFENDGTMTSHHTYELDGTCVISRITVNCDGFQPDGPIMKDQLVDILPTETHMFPHGSNAVRQLCYIGFTTADGGLMMSHFDSKLTFNGSRAIKIPGPHFVTVIIKQMKDTSDKRDHVCQREVTYAHSVPRITSAI",phototoxic effect,[4],not phototoxic
"S3-2 (protein, amino acid sequence for the red fluorescent protein S3-2) EGGPALFQSDMTFKIFIDGVVNGQKFTIVADGSSKFPHGDFNVHAVCETGKLPMSWKPICHLIQYGEPFFARYPNGISHFAQECFPEGLSIDRTVRFENDGTMTSHHTYELDGTCVVSRITVNCDGFQPDGPIMRDQLVDILPNETHMFPHGPNAVRQLAFIGFTTADGGLMMSHFDSKMTFNGSRAIKIPGPHFVTTITKQMKDTSDKRDHVCQREVTYAHSVPRITSAI",phototoxic effect,[4],phototoxic
"KillerRed: red fluorescent protein (SEQ ID NO: 4), developed from chromoprotein anm2CP by random mutagenesis; genetically encoded photosensitizer (protein, amino acid sequence for the red fluorescent protein JR18IC+, genetically encoded photosensitizer) EGGPALFQSDMTFKIFIDGEVNGQKFTIVADGSSKFPHGDFNVHAVCETGKLPMSWKPICHLIQYGEPFFARYPNGISHFAQECFPEGLSIDRTVRFENDGTMTSHHTYELDDTCVVSRITVNCDGFQPDGPIMRDQLVDILPNETHMFPHGPDAVRQLAFIGFTTADGGLMMGHFDSKMTFNGSRAIEIPGPHFVTIITKQMRDTSDKRDHVCQREVAYAHSVPRITSAIGSDED",phototoxic effect,[4],striking phototoxic effect; also recorded: most strongly expressed
same,bacteria killed,[4]; after 1 hour irradiation with white light,99.95%
same,CALI of the PH domain,[5],no detectable CALI
same,cells killed,[6]; after 10 minutes of irradiation with white light,96%
same,cells killed,[6]; after 20 minutes of irradiation with white light,~100%
same,cell killing effect,E. coli; blue light irradiation (FITC filter set),weak effect
same,cell killing effect,E. coli; green light irradiation (TRITC filter set),strong cell killing effect
same,Mortality of irradiated cells,"293T human kidney cells; green light 10 min, 535-575 nm, 5.8 W/cm2, depending on protein concentration",40-60%
same,fate of irradiated cell,"293T human kidney cells; highly expressing cell, post irradiation with green light 10 min",disintegrated within an hour and a half
same,effect of irradiation on enzyme activity,beta-gal [7],no effect
